According to paper PMC3912200, “Structural and Functional Characterization of Cargo-Binding Sites on the μ4-Subunit of Adaptor Protein Complex 4” (PLoS ONE, 2014):
One block for each molecule: values may come before it.

What was measured:
[1] = molecular target: T1, recombinant μ4 C-terminal domain, wild-type (Homo sapiens, UniProt O00189); test: Isothermal titration calorimetry with wild-type μ4; assay type: binding; conditions: canonical YXXØ signal peptides, 28°C, pH 7.4, stoichiometry and Kd N/D
T1 construct: recombinant C-terminal domain of human μ4 (residues 160-453); GST followed by TEV protease cleavage site (N, cleaved yes); made in house; host or cells: E. coli B834(DE3)pLysS
T1 sequence (O00189 160-453): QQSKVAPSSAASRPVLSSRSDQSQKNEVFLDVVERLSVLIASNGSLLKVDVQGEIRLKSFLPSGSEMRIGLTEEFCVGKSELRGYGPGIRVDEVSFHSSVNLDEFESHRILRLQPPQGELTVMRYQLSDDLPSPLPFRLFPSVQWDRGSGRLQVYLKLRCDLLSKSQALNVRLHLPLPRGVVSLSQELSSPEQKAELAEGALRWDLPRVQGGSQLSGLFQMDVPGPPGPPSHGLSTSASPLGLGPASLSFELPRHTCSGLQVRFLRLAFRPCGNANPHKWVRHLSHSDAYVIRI
Description: Recombinant μ4 C-terminal variants were dialyzed overnight at 4°C against excess ITC buffer (50 mM Tris-HCl, pH 7.4, 150 mM NaCl), and an APP peptide ([sequence]), a CD63 peptide (SGYEVM), or a TGN38 peptide (SDYQRL; New England Peptide, Gardner, MA) were also prepared in ITC buffer. All ITC experiments were carried out at 28°C using an iTC200 instrument (GE Healthcare). […] Titration curves were analyzed using Origin software (MicroCal). The binding constant corresponding to each μ4 construct was calculated by fitting the curves to a one-site model.
Isothermal titration calorimetry of recombinant C-terminal domain of wild-type μ4 with the TGN38 SDYQRL peptide (C), or the CD63 SGYEVM peptide (D).

C-terminal domain of μ3A = conditions: previously shown; ref [18]; cited from earlier work
Description: (§1) This tyrosine-based signal is related to the YXXØ motif, which is the signal contained in the cytosolic tail of transmembrane proteins that binds to a different site on the μ2 subunit of AP-2 [28], or on the μ3A subunit of AP-3 [30]. In this study, we wanted to determine whether this putative second binding site on μ4, referred here as the μ2-binding site (Figure 1, A and B), played any role in the binding to the YKFFE signal of APP ...

cytosolic tail of APP = conditions: mutations at μ4-binding site; previously identified; ref [18]; cited from earlier work
Description: as §1

interaction (ITC) [1]: undetectable
Molecule: SDYQRL [TGN38 SDYQRL peptide, peptide bearing the canonical YXXØ signal of TGN38]
binding to C-terminal domain of μ3A (C-terminal domain of μ3A): bind well

interaction (ITC) [1]: undetectable
Molecule: SGYEVM [CD63 SGYEVM peptide, peptide bearing the canonical YXXØ signal of CD63]
binding to C-terminal domain of μ3A (C-terminal domain of μ3A): bind well

B1: H256A: μ4 mutant, μ4-binding site, reported previously (protein, UniProt O00189 1-453, looked up, variant H256A)
AP-4 complex subunit mu-1: MISQFFILSSKGDPLIYKDFRGDSGGRDVAELFYRKLTGLPGDESPVVMHHHGRHFIHIRHSGLYLVVTTSENVSPFSLLELLSRLATLLGDYCGSLGEGTISRNVALVYELLDEVLDYGYVQTTSTEMLRNFIQTEAVVSKPFSLFDLSSVGLFGAETQQSKVAPSSAASRPVLSSRSDQSQKNEVFLDVVERLSVLIASNGSLLKVDVQGEIRLKSFLPSGSEMRIGLTEEFCVGKSELRGYGPGIRVDEVSFASSVNLDEFESHRILRLQPPQGELTVMRYQLSDDLPSPLPFRLFPSVQWDRGSGRLQVYLKLRCDLLSKSQALNVRLHLPLPRGVVSLSQELSSPEQKAELAEGALRWDLPRVQGGSQLSGLFQMDVPGPPGPPSHGLSTSASPLGLGPASLSFELPRHTCSGLQVRFLRLAFRPCGNANPHKWVRHLSHSDAYVIRI
effect of mutation on binding to the APP YKFFE signal (cytosolic tail of APP): null effect

B2: L261S: μ4 mutant, μ4-binding site, Y2H construct (protein, UniProt O00189 1-453, looked up, variant L261S)
AP-4 complex subunit mu-1: MISQFFILSSKGDPLIYKDFRGDSGGRDVAELFYRKLTGLPGDESPVVMHHHGRHFIHIRHSGLYLVVTTSENVSPFSLLELLSRLATLLGDYCGSLGEGTISRNVALVYELLDEVLDYGYVQTTSTEMLRNFIQTEAVVSKPFSLFDLSSVGLFGAETQQSKVAPSSAASRPVLSSRSDQSQKNEVFLDVVERLSVLIASNGSLLKVDVQGEIRLKSFLPSGSEMRIGLTEEFCVGKSELRGYGPGIRVDEVSFHSSVNSDEFESHRILRLQPPQGELTVMRYQLSDDLPSPLPFRLFPSVQWDRGSGRLQVYLKLRCDLLSKSQALNVRLHLPLPRGVVSLSQELSSPEQKAELAEGALRWDLPRVQGGSQLSGLFQMDVPGPPGPPSHGLSTSASPLGLGPASLSFELPRHTCSGLQVRFLRLAFRPCGNANPHKWVRHLSHSDAYVIRI
effect of mutation on binding to the APP YKFFE signal (cytosolic tail of APP): sensitivity

B3: S257A: μ4 mutant, μ4-binding site, reported previously (protein, UniProt O00189 1-453, looked up, variant S257A)
AP-4 complex subunit mu-1: MISQFFILSSKGDPLIYKDFRGDSGGRDVAELFYRKLTGLPGDESPVVMHHHGRHFIHIRHSGLYLVVTTSENVSPFSLLELLSRLATLLGDYCGSLGEGTISRNVALVYELLDEVLDYGYVQTTSTEMLRNFIQTEAVVSKPFSLFDLSSVGLFGAETQQSKVAPSSAASRPVLSSRSDQSQKNEVFLDVVERLSVLIASNGSLLKVDVQGEIRLKSFLPSGSEMRIGLTEEFCVGKSELRGYGPGIRVDEVSFHASVNLDEFESHRILRLQPPQGELTVMRYQLSDDLPSPLPFRLFPSVQWDRGSGRLQVYLKLRCDLLSKSQALNVRLHLPLPRGVVSLSQELSSPEQKAELAEGALRWDLPRVQGGSQLSGLFQMDVPGPPGPPSHGLSTSASPLGLGPASLSFELPRHTCSGLQVRFLRLAFRPCGNANPHKWVRHLSHSDAYVIRI
effect of mutation on binding to the APP YKFFE signal (cytosolic tail of APP): null effect

B4: E265A: μ4 mutant, μ4-binding site, reported previously (protein, UniProt O00189 1-453, looked up, variant E265A)
AP-4 complex subunit mu-1: MISQFFILSSKGDPLIYKDFRGDSGGRDVAELFYRKLTGLPGDESPVVMHHHGRHFIHIRHSGLYLVVTTSENVSPFSLLELLSRLATLLGDYCGSLGEGTISRNVALVYELLDEVLDYGYVQTTSTEMLRNFIQTEAVVSKPFSLFDLSSVGLFGAETQQSKVAPSSAASRPVLSSRSDQSQKNEVFLDVVERLSVLIASNGSLLKVDVQGEIRLKSFLPSGSEMRIGLTEEFCVGKSELRGYGPGIRVDEVSFHSSVNLDEFASHRILRLQPPQGELTVMRYQLSDDLPSPLPFRLFPSVQWDRGSGRLQVYLKLRCDLLSKSQALNVRLHLPLPRGVVSLSQELSSPEQKAELAEGALRWDLPRVQGGSQLSGLFQMDVPGPPGPPSHGLSTSASPLGLGPASLSFELPRHTCSGLQVRFLRLAFRPCGNANPHKWVRHLSHSDAYVIRI
effect of mutation on binding to the APP YKFFE signal (cytosolic tail of APP): null effect

B5: F255A: μ4 mutant, μ4-binding site, Y2H construct (protein, UniProt O00189 1-453, looked up, variant F255A)
AP-4 complex subunit mu-1: MISQFFILSSKGDPLIYKDFRGDSGGRDVAELFYRKLTGLPGDESPVVMHHHGRHFIHIRHSGLYLVVTTSENVSPFSLLELLSRLATLLGDYCGSLGEGTISRNVALVYELLDEVLDYGYVQTTSTEMLRNFIQTEAVVSKPFSLFDLSSVGLFGAETQQSKVAPSSAASRPVLSSRSDQSQKNEVFLDVVERLSVLIASNGSLLKVDVQGEIRLKSFLPSGSEMRIGLTEEFCVGKSELRGYGPGIRVDEVSAHSSVNLDEFESHRILRLQPPQGELTVMRYQLSDDLPSPLPFRLFPSVQWDRGSGRLQVYLKLRCDLLSKSQALNVRLHLPLPRGVVSLSQELSSPEQKAELAEGALRWDLPRVQGGSQLSGLFQMDVPGPPGPPSHGLSTSASPLGLGPASLSFELPRHTCSGLQVRFLRLAFRPCGNANPHKWVRHLSHSDAYVIRI
effect of mutation on binding to the APP YKFFE signal (cytosolic tail of APP): sensitivity

B6: R283D: μ4 mutant, μ4-binding site, Y2H construct (protein, UniProt O00189 1-453, looked up, variant R283D)
AP-4 complex subunit mu-1: MISQFFILSSKGDPLIYKDFRGDSGGRDVAELFYRKLTGLPGDESPVVMHHHGRHFIHIRHSGLYLVVTTSENVSPFSLLELLSRLATLLGDYCGSLGEGTISRNVALVYELLDEVLDYGYVQTTSTEMLRNFIQTEAVVSKPFSLFDLSSVGLFGAETQQSKVAPSSAASRPVLSSRSDQSQKNEVFLDVVERLSVLIASNGSLLKVDVQGEIRLKSFLPSGSEMRIGLTEEFCVGKSELRGYGPGIRVDEVSFHSSVNLDEFESHRILRLQPPQGELTVMDYQLSDDLPSPLPFRLFPSVQWDRGSGRLQVYLKLRCDLLSKSQALNVRLHLPLPRGVVSLSQELSSPEQKAELAEGALRWDLPRVQGGSQLSGLFQMDVPGPPGPPSHGLSTSASPLGLGPASLSFELPRHTCSGLQVRFLRLAFRPCGNANPHKWVRHLSHSDAYVIRI
effect of mutation on binding to the APP YKFFE signal (cytosolic tail of APP): sensitivity

B7: R283A: μ4 mutant, μ4-binding site, reported previously (protein, UniProt O00189 1-453, looked up, variant R283A)
AP-4 complex subunit mu-1: MISQFFILSSKGDPLIYKDFRGDSGGRDVAELFYRKLTGLPGDESPVVMHHHGRHFIHIRHSGLYLVVTTSENVSPFSLLELLSRLATLLGDYCGSLGEGTISRNVALVYELLDEVLDYGYVQTTSTEMLRNFIQTEAVVSKPFSLFDLSSVGLFGAETQQSKVAPSSAASRPVLSSRSDQSQKNEVFLDVVERLSVLIASNGSLLKVDVQGEIRLKSFLPSGSEMRIGLTEEFCVGKSELRGYGPGIRVDEVSFHSSVNLDEFESHRILRLQPPQGELTVMAYQLSDDLPSPLPFRLFPSVQWDRGSGRLQVYLKLRCDLLSKSQALNVRLHLPLPRGVVSLSQELSSPEQKAELAEGALRWDLPRVQGGSQLSGLFQMDVPGPPGPPSHGLSTSASPLGLGPASLSFELPRHTCSGLQVRFLRLAFRPCGNANPHKWVRHLSHSDAYVIRI
effect of mutation on binding to the APP YKFFE signal (cytosolic tail of APP): null effect
